Data taken from patent US20250302816A1, “DISRUPTION OF EPITHELIAL BARRIERS FOR MOLECULAR DELIVERY ENHANCEMENT OR EXTRACTION OF EXTRACELLULAR FLUIDS” (The University of Nottingham, priority 2022, published 2025).

Experiments:
ex-vivo rat eyes = tested on: ex-vivo rat eyes
Procedure: In order to investigate the efficacy of 3OC12-HSL as drug delivery enhancer in intact tissue, bevacizumab (250 μg/mL: […]) and aflibercept (40 mg/mL: 348 μM) were applied with and without 3OC12-HSL to ex-vivo rat eyes, and the distribution of drugs was visualised within sagittal ocular cryosections by confocal microscopy. A further set of experiments tested efficacy of 3OC12-HSL via ex vivo porcine skin.
Six hooded rats with pigmented eyes, weighing 280-300 g and aged 7-8 weeks were provided by Bio-Support Unit at the Queen's Medical Centre, Nottingham. Experiments were designed to be performed ex-vivo, immediately post-sacrifice, during experiments supporting other studies. Tested therapies (bevacizumab (250 μg/mL), aflibercept (250 μg/mL) with/without 3OC12-HSL (200 μM) were immediately applied post-sacrifice in (50 μL) to the corneal surface of each animal for a period of 1 hour, before being washed off using ice-cold PBS. The eyeballs were enucleated, immersed in OCT, and flash-frozen in isopentane cooled by liquid N2 before being stored at −80° C. for further processing.
OCT-embedded eyes were cut into 15 μm tissue sections using a cryostat (Leica 3050) and mounted on gelatin-coated slides, at cutting temperatures between −15 and −23° C. […]

[1] = tested on: laser-induced mouse model of CNV; experiment: Laser-induced mouse model of choroidal neovascularisation (CNV); assay type: in vivo, C57BL/6J mice; details: day 7, topical drops to both eyes twice daily, bevacizumab 250 μg/mL
Procedure: FIG. 7: Anti-angiogenic efficacy of Bevacizumab with and without 3OC12-HSL (agent) in a laser-induced mouse model of CNV.in a mouse model of choroidal neovascularisation. C57BL/6J mice (n=6 per group) were subjected to laser photocoagulation (Merilas, 532α, 450 mW, 130 ms, 75 μm, 4 lesions per eye) on day 0. Post lasering animals received twice daily topical drops to both eyes10 μL of bevacizumab (250 μg/mL) with/without 3OC12-HSL and control vehicle only) for a total of 14 days. FFA was performed on days 7 and 14 and lesion area measured using Fiji software, n=lesions (mice). All data and graphs were calculated with Fiji and GraphPad Prism v8 and statistical analysis using an t-test, with Welch's correction, * p=<0.05, ** p=<0.01. Data bars represent mean±SEM. Scale bar 200 μm.
Six to eight week-old female C57BL/6J mice (16-20 g, Charles River, UK) were anaesthetized with an intraperitoneal (i.p.) injection of 50 mg/kg ketamine hydrochloride (Ketaset®, 100 mg/mL) and 0.5 mg/kg medetomidine hydrochloride (Sedastart®, 1 mg/mL). The pupils were dilated with a drop of 5% phenylephrine hydrochloride and 0.8% tropicamide to each eye. […] Fundus angiograms were imported into Fiji software and lesions were traced by a masked observer and lesion area was quantified over treatment time and compared between treatment groups. […]

With “Bevacizumab: recombinant humanized monoclonal IgG1 antibody which binds to human VEGF (MW 149 kDa)” the penetration through skin (ex vivo porcine skin) was 5 mm, the “fluorescence in eye sections (CLSM)” value (ex-vivo rat eyes) was “No fluorescence was detected” and the average lesion area [1] was 2.86±0.47×10^4.
